In patent US20040121386:

Legend:
[1] = system: T1, His-tagged MKK7γ1
T1 sequence: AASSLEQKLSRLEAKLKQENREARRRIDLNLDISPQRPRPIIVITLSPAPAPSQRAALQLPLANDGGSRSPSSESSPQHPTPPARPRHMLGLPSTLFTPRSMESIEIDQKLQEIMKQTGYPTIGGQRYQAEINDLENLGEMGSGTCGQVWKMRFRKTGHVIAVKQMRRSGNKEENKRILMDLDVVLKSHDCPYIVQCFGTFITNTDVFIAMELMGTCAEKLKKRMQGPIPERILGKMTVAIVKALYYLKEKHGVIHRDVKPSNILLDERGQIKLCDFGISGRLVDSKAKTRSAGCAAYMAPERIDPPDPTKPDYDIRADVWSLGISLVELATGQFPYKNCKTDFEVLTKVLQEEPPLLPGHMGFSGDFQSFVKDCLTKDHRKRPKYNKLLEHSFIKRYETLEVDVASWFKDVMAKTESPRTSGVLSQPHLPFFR

[2] = system: unactive MKK7β1 (UBI)
[3] = system: unactive JNK1 (Upstate, Inc.)

Substance	phosphorylation in a two-step cascade kinase assay (γ-32P-ATP, SDS/PAGE, autoradiography) [1]	phosphorylation in a two-step cascade kinase assay (γ-32P-ATP, SDS/PAGE, autoradiography) [2]	phosphorylation in a two-step cascade kinase assay (γ-32P-ATP, SDS/PAGE, autoradiography) [3]
Active MEKK1 (Upstate, Inc.)	The His-tagged MKK7γ1 protein and the MKK7β1 protein was phosphorylated by MEKK1	The His-tagged MKK7γ1 protein and the MKK7β1 protein was phosphorylated by MEKK1	–
unactive MKK7β1 (UBI)	–	–	in turn was able to phosphorylate JNK1
